± gives the standard deviation of the averaged measurements.
B1: library; a variant is named by its letters at N, in order (parent)
chain: GCUGUCACCGGUGUAUUACCCUAGUGGUCGACCGGUCUGAUGAGUCUNNNNNNAGACGAAACAGC

Assays:
hypoxanthine [1] = variants of: B1; experiment: normalized RNA/DNA level with ligand (relative to sTRSVctl = 100) (log10 (% of sTRSVctl)); ligand: hypoxanthine (xanthine aptamer); higher = less ribozyme self-cleavage, higher mRNA level; details: ligand concentration (+) RNA-Seq: 5 mM, HEK293T, reporter: mCherry (pCS4076), ligand present: yes
Procedure, shortened: (§1)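 For each 6-well well, 4 µg of library plasmid encoding mCherry-linked ribozyme switches, or eGFP-linked ones in some ligand experiments, was transfected into HEK293T. Any ligand was added 1 h before transfection, and RNA was extracted with EDTA 72 h after it, then reverse-transcribed, amplified, barcoded and sequenced. RNA level was obtained by dividing RNA reads by DNA reads, normalizing to a spiked-in non-cleaving sequence or to the top sequences, then scaling and log-transforming. The top set was 25 sequences, scaling was ×100 with log10, and ≥100 DNA reads were required.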

hypoxanthine [2] = variants of: B1; experiment: normalized RNA/DNA level without ligand (relative to sTRSVctl = 100) (log10 (% of sTRSVctl)); ligand: hypoxanthine (xanthine aptamer); higher = less ribozyme self-cleavage, higher mRNA level; details: HEK293T, reporter: mCherry (pCS4076), ligand present: no
Procedure, shortened: as §1

Row | Variant | normalized RNA/DNA level with ligand (log10) (hypoxanthine [1]) | normalized RNA/DNA level without ligand (log10) (hypoxanthine [2])
1 | CGCAGG | 1.82 ± 0.096 | 1.348 ± 0.011
2 | AUGCUG | 1.898 ± 0.0024 | 1.61 ± 0.048
3 | AUGCUC | 2.008 ± 0.011 | 1.976 ± 0.013
4 | UUGAUG | 1.94 ± 0.045 | 1.8 ± 0.029
5 | UUGUAG | 1.99 ± 0.025 | 1.84 ± 0.025
6 | AGAGCA | 1.94 ± 0.065 | 1.75 ± 0.027
7 | CUAGCC | 1.95 ± 0.037 | 1.86 ± 0.064
8 | UAGACU | 1.925 ± 0.0021 | 1.83 ± 0.02
9 | UUAAUG | 1.886 ± 0.0055 | 1.737 ± 0.0081
10 | CCGUCG | 1.89 ± 0.061 | 1.689 ± 0.011
11 | CCACGC | 2.01 ± 0.015 | 1.864 ± 0.0022
12 | AGUGUU | 1.96 ± 0.031 | 1.81 ± 0.027
13 | AUCGAA | 1.863 ± 0.01 | 1.73 ± 0.04
14 | GUUUAC | 1.96 ± 0.04 | 1.88 ± 0.028
15 | UACCCU | 1.9818 ± 0.00074 | 1.916 ± 0.015
16 | CACAAG | 1.877 ± 0.0098 | 1.676 ± 0.013
17 | CUCAGG | 1.95 ± 0.041 | 1.88 ± 0.026
18 | CCCUAC | 1.973 ± 0.018 | 1.9 ± 0.11
19 | UGGAUC | 1.99 ± 0.04 | 1.95 ± 0.027
20 | AAUCUC | 2 ± 0.062 | 2.023 ± 0.02
21 | AAUCUU | 1.94 ± 0.029 | 1.914 ± 0.012
22 | CUUAAA | 1.899 ± 0.0031 | 1.8 ± 0.036
23 | CUGUAG | 1.88 ± 0.024 | 1.65 ± 0.032
24 | UGAGGU | 1.94 ± 0.035 | 1.665 ± 0.015

Row | Variant | normalized RNA/DNA level with ligand (log10) (hypoxanthine [1]) | normalized RNA/DNA level without ligand (log10) (hypoxanthine [2])
25 | CCAGAC | 1.954 ± 0.0047 | 1.877 ± 0.011
26 | GAUCUA | 1.95 ± 0.055 | 1.86 ± 0.033
27 | CGUAUG | 1.91 ± 0.035 | 1.84 ± 0.0095
28 | UUGUGU | 1.97 ± 0.051 | 1.93 ± 0.043
29 | CCUUUA | 1.948 ± 0.019 | 1.84 ± 0.035
30 | UCCCCU | 1.996 ± 0.014 | 1.9 ± 0.023
31 | UGCGAA | 1.86 ± 0.021 | 1.724 ± 0.013
32 | CUCCGA | 1.96 ± 0.13 | 1.884 ± 0.0062
33 | CGAUGA | 1.93 ± 0.018 | 1.79 ± 0.057
34 | CACGAC | 1.95 ± 0.028 | 1.84 ± 0.0038
35 | AUCGUU | 1.98 ± 0.08 | 1.87 ± 0.043
36 | GCGUCA | 1.96 ± 0.023 | 1.68 ± 0.069
37 | CAGAUA | 1.88 ± 0.052 | 1.57 ± 0.043
38 | CGUACG | 1.92 ± 0.056 | 1.87 ± 0.028
39 | UUAGAU | 1.9278 ± 0.00084 | 1.766 ± 0.0096
40 | UUUUUG | 1.98 ± 0.025 | 1.83 ± 0.064
41 | GCCCCA | 1.965 ± 0.0094 | 1.85 ± 0.05
42 | UCUUCA | 1.97 ± 0.11 | 1.8691 ± 0.00053
43 | UCGAGC | 1.97 ± 0.029 | 1.6 ± 0.1
44 | GUGUUU | 1.92 ± 0.041 | 1.87 ± 0.046
45 | CUGUCG | 1.98 ± 0.027 | 1.84 ± 0.032
46 | CUAUCA | 1.92 ± 0.041 | 1.86 ± 0.029
47 | CGCACG | 1.95 ± 0.089 | 1.87 ± 0.044
48 | CACUCC | 1.93 ± 0.021 | 1.92 ± 0.063

Row | Variant | normalized RNA/DNA level with ligand (log10) (hypoxanthine [1]) | normalized RNA/DNA level without ligand (log10) (hypoxanthine [2])
49 | CACUCG | 1.99 ± 0.066 | 1.92 ± 0.062
50 | AAACAC | 1.885 ± 0.011 | 1.712 ± 0.0056
51 | CACCGC | 2.015 ± 0.0091 | 1.91 ± 0.042
52 | CUGAAU | 1.93 ± 0.062 | 1.74 ± 0.062
53 | UAGGGC | 1.962 ± 0.01 | 1.88 ± 0.057
54 | UAGGGA | 1.861 ± 0.011 | 1.49 ± 0.035
55 | GGGUCU | 1.98 ± 0.054 | 1.93 ± 0.037
56 | ACCAGG | 1.832 ± 0.015 | 1.44 ± 0.064
57 | UCUCAU | 1.975 ± 0.012 | 1.887 ± 0.01
58 | ACGUAU | 1.86 ± 0.057 | 1.39 ± 0.053
59 | GAACCU | 1.95 ± 0.043 | 1.92 ± 0.026
60 | GAACCC | 1.945 ± 0.0058 | 1.88 ± 0.026
61 | UCCCGG | 1.95 ± 0.11 | 1.668 ± 0.0066
62 | UCCCGA | 1.956 ± 0.0054 | 1.8 ± 0.031
63 | GUGACA | 1.9 ± 0.04 | 1.78 ± 0.033
64 | ACGCCU | 1.945 ± 0.008 | 1.63 ± 0.068
65 | CUUCAG | 1.92 ± 0.08 | 1.84 ± 0.07
66 | CGUCUG | 1.95 ± 0.11 | 1.957 ± 0.013
67 | UAGUAC | 1.94 ± 0.031 | 1.81 ± 0.035
68 | UAGUAA | 1.939 ± 0.016 | 1.77 ± 0.022
69 | GCCCUA | 1.97 ± 0.052 | 1.8733 ± 0.00068
70 | CUUUCU | 1.93 ± 0.048 | 1.88 ± 0.038
71 | ACAACA | 1.92 ± 0.028 | 1.85 ± 0.022
72 | UUGGUC | 1.97 ± 0.034 | 2.006 ± 0.0099

Row | Variant | normalized RNA/DNA level with ligand (log10) (hypoxanthine [1]) | normalized RNA/DNA level without ligand (log10) (hypoxanthine [2])
73 | GCUAUA | 1.93 ± 0.03 | 1.89 ± 0.034
74 | CUCUGU | 1.963 ± 0.0084 | 1.94 ± 0.028
75 | UUUGAU | 1.9 ± 0.052 | 1.7965 ± 0.0012
76 | AGCGAU | 1.9 ± 0.037 | 1.73 ± 0.076
77 | UCUGAG | 1.927 ± 0.0088 | 1.58 ± 0.035
78 | AUUUCU | 1.96 ± 0.052 | 1.917 ± 0.018
79 | CCCCUG | 1.927 ± 0.0039 | 1.81 ± 0.04
80 | UGAUGC | 1.95 ± 0.059 | 1.852 ± 0.014
81 | UGAUGG | 1.92 ± 0.062 | 1.51 ± 0.064
82 | UGAUUG | 1.97 ± 0.043 | 1.763 ± 0.0098
83 | UGAUUA | 1.91 ± 0.087 | 1.88 ± 0.049
84 | UGUCAU | 1.939 ± 0.01 | 1.823 ± 0.0053
85 | AGGUGG | 1.83 ± 0.021 | 1.391 ± 0.011
86 | UGGGUU | 1.99 ± 0.023 | 1.9 ± 0.047
87 | CACAGG | 1.77 ± 0.089 | 1.26 ± 0.06
88 | CUUUAC | 1.92 ± 0.073 | 1.81 ± 0.052
89 | UCCGGU | 1.98 ± 0.037 | 1.83 ± 0.054
90 | GUUGGA | 1.913 ± 0.0093 | 1.67 ± 0.042
91 | UGCAAC | 1.963 ± 0.0065 | 1.83 ± 0.022
92 | UGUUGC | 1.943 ± 0.015 | 1.87 ± 0.051
93 | CUGCAA | 1.933 ± 0.0062 | 1.773 ± 0.015
94 | GCCAGC | 1.97 ± 0.047 | 1.81 ± 0.055
95 | CGAGUA | 1.928 ± 0.013 | 1.72 ± 0.042
96 | AUAGGC | 1.91 ± 0.025 | 1.776 ± 0.0031

Row | Variant | normalized RNA/DNA level with ligand (log10) (hypoxanthine [1]) | normalized RNA/DNA level without ligand (log10) (hypoxanthine [2])
97 | CUAAAG | 1.92 ± 0.051 | 1.67 ± 0.013
98 | UCGCAU | 1.87 ± 0.022 | 1.68 ± 0.018
99 | GACUGU | 1.89 ± 0.033 | 1.8123 ± 0.00033
100 | CGCCAA | 1.94 ± 0.02 | 1.82 ± 0.064
101 | UAGCUA | 1.96 ± 0.078 | 1.884 ± 0.0057
102 | GCAGUU | 1.9707 ± 0.00023 | 1.855 ± 0.015
103 | CAAUGC | 1.95 ± 0.047 | 1.89 ± 0.029
104 | UACCUC | 1.99 ± 0.082 | 1.93 ± 0.067
105 | UAGGUA | 1.96 ± 0.033 | 1.84 ± 0.036
106 | AGAGGC | 1.987 ± 0.014 | 1.86 ± 0.068
107 | CUAAGG | 1.91 ± 0.032 | 1.75 ± 0.046
108 | GAGGGA | 1.9 ± 0.053 | 1.52 ± 0.022
109 | GUGCGC | 1.9 ± 0.023 | 1.74 ± 0.098
110 | CUAGUU | 1.919 ± 0.0027 | 1.9151 ± 0.00062
111 | CCAGCG | 1.917 ± 0.0021 | 1.82 ± 0.038
112 | ACCGAG | 1.76 ± 0.057 | 1.301 ± 0.0053
113 | GCACCA | 1.939 ± 0.016 | 1.88 ± 0.023
114 | UUGGGA | 2.02 ± 0.07 | 1.71 ± 0.053
115 | GUUCAC | 1.96 ± 0.05 | 1.85 ± 0.023
116 | ACAAGU | 1.88 ± 0.032 | 1.564 ± 0.013
